The target in data set [1] is T1, SNX9 (Mus musculus, UniProt Q91VH2).
T1 construct: harvesting BMDM cells with different treatment times of 1 μg/ml rRv3364c, performing immunoprecipitation (IP) with αHis; endogenous in cells; host or cells: mouse BMDM, Raw264.7
The data set is described as follows: Co-immunoprecipitation, cell fractionation and immunostaining in macrophages and HEK293T cells. The data set is classed as cell-based. As to conditions: cell fractionation (Raw264.7) and immunostaining (BMDM), 1 μg/ml rRv3364c, time course.

Data set [2] concerns SNX9. The description is as above. The data set is classed as cell-based. The settings on record: macrophages and HEK293T cells, 1 μg/ml rRv3364c, 15 to 30 min.
The target of data set [3] is T2, YEATS4 (Mus musculus, UniProt Q9CR11).
T2 construct: harvesting BMDM cells with different treatment times of 1 μg/ml rRv3364c, performing immunoprecipitation (IP) with αHis; endogenous in cells; host or cells: mouse BMDM, Raw264.7
The description is as above. The data set is classed as cell-based. As to conditions: cell fractionation (Raw264.7) and immunostaining (BMDM), 1 μg/ml rRv3364c, time course.

Data set [4] relates to YEATS4. The data set is described as above. The data set is classed as cell-based. As to conditions: macrophages and HEK293T cells, 1 μg/ml rRv3364c, 15 to 30 min.
For the next data set, the system named is macrophages (BMDM). The data set is classed as cell-based, mouse. The settings on record: 1 μg/ml, 18 hours, ELISA.
Another data set deals with T3, cathepsin G (Homo sapiens, UniProt P08311).
T3 sequence (P08311 21-244): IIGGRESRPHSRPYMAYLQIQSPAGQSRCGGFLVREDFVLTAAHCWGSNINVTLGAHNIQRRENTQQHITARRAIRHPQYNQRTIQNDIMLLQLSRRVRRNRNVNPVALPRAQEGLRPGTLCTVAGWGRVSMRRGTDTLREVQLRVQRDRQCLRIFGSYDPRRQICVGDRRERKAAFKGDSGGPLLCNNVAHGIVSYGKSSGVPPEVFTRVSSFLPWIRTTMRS
The settings on record: membrane protein of macrophages; cited from earlier work.

Data set [5] deals with T4, EGFLAM (EGF-like Fibronectin type III and Laminin G domains) (Homo sapiens, UniProt Q63HQ2).
T4 construct: containing 20,000 or more full-length recombinant human proteins; purchased CDI Labs, USA (HuProt Human Proteome Microarray)
T4 sequence (Q63HQ2 25-1017): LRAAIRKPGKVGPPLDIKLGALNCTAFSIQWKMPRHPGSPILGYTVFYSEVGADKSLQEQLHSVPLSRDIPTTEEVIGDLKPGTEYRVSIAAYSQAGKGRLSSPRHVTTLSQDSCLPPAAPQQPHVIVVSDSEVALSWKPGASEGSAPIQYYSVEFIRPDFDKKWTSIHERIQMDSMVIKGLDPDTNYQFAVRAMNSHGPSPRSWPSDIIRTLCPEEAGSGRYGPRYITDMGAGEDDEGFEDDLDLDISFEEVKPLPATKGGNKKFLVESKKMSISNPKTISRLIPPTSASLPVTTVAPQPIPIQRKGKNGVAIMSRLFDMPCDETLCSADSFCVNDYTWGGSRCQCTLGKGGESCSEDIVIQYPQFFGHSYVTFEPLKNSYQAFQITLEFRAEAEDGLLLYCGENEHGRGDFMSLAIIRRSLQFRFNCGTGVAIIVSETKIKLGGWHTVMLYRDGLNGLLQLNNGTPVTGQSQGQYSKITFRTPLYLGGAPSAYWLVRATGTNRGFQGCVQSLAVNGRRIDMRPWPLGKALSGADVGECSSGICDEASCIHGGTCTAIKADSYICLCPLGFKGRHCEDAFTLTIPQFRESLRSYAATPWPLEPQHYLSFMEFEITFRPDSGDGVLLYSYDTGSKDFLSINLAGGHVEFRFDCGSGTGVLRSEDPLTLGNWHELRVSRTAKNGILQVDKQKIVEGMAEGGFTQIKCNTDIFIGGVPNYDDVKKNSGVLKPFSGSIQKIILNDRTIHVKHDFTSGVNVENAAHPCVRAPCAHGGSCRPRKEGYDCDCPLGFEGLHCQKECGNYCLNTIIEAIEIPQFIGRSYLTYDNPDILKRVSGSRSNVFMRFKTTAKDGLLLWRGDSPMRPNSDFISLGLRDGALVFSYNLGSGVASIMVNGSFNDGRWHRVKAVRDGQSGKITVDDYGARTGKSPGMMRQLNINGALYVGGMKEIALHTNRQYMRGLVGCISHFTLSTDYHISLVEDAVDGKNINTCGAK
The data set is described as follows: HuProt human proteome microarray, binding of rRv3364c. As to conditions: cell-free protein microarray, signal at 532 nm. The text has this:
(§1) FIGS. 1A and 1B illustrate results of screening candidate proteins predicted to potentially interact with rRv3364c in a CDI HuProt™ Human Proteome Microarray. Each figure illustrates a section of a protein array showing a positive response. A signal at 532 nm was stronger in an rRv3364c group than in a control group;
(§2) In order to identify a protein binding to rRv3364c, human protein microarrays (CDI Labs, USA) containing 20,000 or more full-length recombinant human proteins were used. Specifically, the protein microarrays were treated with a blocking buffer (2% BSA in PBS, 0.1% […]) for 2 hours. 3 μg of […] on the microarrays at 4° C. for 8 hours. Thereafter, each array was treated with 1 μg of streptavidin fluorescence Alexa Fluor 532 nm at 4° C. for 1 hour. Microarray results were detected using a GenePix 4100A microarray laser scanner (Molecular Devices, USA).
(§3) A customized protein binding assay was used to identify interacting proteins, and candidate proteins capable of potentially interacting with rRv3364c were selected. […] In FIG. 1A, an affinity score (A score) is a normalized signal intensity of two overlapping points, and a specificity score (B score) is a difference between the affinity score of the protein and the protein ranked next thereto.

For data set [6], the target named is T5, YEATS4 (YEATS domain-containing protein 4) (Homo sapiens, UniProt O95619).
T5 construct: containing 20,000 or more full-length recombinant human proteins; purchased CDI Labs, USA (HuProt Human Proteome Microarray)
Described as above. The settings on record: cell-free protein microarray, signal at 532 nm.
Text: as §1, §2, §3

In the next data set the target is T6, SNX9 (sorting nexin 9) (Homo sapiens, UniProt Q9Y5X1).
T6 construct: containing 20,000 or more full-length recombinant human proteins; purchased CDI Labs, USA (HuProt Human Proteome Microarray)
Described as above. The settings on record: cell-free protein microarray, signal at 532 nm.
Text: as §1, §2, §3

Data set [7] concerns the target T7, ZBTB46 (zinc finger and BTB domain-containing 46) (Homo sapiens, UniProt Q86UZ6).
T7 construct: containing 20,000 or more full-length recombinant human proteins; purchased CDI Labs, USA (HuProt Human Proteome Microarray)
T7 sequence (Q86UZ6 1-589): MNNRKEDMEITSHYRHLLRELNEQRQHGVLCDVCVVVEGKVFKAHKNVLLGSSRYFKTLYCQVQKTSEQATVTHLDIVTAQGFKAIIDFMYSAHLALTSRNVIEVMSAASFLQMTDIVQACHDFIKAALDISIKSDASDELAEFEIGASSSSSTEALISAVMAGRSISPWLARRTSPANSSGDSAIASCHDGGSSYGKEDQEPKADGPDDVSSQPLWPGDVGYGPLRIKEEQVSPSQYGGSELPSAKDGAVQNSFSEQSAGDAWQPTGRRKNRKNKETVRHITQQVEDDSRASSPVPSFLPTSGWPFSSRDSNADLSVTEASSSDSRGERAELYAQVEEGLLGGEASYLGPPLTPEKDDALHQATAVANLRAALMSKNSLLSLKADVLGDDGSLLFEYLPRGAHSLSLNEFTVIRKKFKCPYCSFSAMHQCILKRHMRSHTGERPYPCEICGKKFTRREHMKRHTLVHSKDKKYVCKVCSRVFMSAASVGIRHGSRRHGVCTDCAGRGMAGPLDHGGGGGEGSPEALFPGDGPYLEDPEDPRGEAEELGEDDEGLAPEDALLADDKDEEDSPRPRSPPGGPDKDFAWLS
The description is as above. The settings on record: cell-free protein microarray, signal at 532 nm.
Text: as §1, §2, §3

The values below come from patent US20230203107A1, “PEPTIDE FOR TREATING SEPSIS DERIVED FROM RV3364C PROTEIN OF MYCOBACTERIUM TUBERCULOSIS” (priority 2021, published 2023).

T2 sequence (Q9CR11 whole entry): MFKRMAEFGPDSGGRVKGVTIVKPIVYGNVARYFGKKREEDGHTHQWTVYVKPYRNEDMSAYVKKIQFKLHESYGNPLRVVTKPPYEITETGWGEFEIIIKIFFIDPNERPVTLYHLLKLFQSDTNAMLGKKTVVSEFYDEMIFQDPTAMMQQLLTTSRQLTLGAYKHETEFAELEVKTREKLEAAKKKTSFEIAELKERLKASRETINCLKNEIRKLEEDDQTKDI
T6 sequence (Q9Y5X1 whole entry): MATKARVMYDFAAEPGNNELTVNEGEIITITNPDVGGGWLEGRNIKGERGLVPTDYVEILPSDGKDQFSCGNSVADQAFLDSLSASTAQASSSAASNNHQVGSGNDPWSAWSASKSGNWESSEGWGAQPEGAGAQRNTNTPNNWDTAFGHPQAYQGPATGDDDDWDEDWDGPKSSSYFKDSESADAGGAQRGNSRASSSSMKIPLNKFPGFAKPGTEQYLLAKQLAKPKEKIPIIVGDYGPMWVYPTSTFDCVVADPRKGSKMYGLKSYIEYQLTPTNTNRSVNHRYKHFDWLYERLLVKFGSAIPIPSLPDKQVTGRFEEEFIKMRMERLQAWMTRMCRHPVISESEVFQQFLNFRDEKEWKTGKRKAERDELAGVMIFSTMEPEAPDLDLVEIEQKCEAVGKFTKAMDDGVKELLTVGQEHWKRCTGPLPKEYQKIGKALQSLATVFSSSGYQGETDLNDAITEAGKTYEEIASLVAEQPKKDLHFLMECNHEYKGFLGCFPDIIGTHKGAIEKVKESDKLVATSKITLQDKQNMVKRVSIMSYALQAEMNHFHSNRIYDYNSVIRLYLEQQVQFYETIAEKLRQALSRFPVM
T1 sequence (Q91VH2 whole entry): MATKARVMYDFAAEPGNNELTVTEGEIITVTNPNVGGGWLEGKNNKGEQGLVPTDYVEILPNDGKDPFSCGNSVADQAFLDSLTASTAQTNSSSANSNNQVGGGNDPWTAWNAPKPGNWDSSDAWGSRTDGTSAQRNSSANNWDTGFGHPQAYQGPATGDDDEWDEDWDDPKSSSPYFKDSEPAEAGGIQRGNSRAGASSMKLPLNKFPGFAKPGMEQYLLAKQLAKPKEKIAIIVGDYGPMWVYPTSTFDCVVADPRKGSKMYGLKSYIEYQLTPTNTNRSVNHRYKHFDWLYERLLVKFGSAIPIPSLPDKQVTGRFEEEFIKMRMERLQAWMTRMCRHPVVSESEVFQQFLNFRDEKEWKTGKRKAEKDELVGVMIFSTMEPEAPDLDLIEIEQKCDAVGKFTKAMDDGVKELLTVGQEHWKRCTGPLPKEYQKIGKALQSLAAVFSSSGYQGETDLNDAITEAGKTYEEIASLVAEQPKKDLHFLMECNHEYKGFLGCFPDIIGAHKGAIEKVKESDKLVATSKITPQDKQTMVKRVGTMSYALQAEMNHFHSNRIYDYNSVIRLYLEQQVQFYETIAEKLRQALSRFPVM
T5 sequence (O95619 whole entry, the tested form may be a part): as the sequence (Q9CR11 whole entry) above, with T224A counted along it

Turning to “rRv3364c: recombinant Rv3364c protein of MTB H37Rv with N-terminal 6xHis tag, expressed in E. coli, 13 kDa”, in the data set with macrophages, the rRv3364c-induced cytotoxicity result is reported as “not observed”. Further, the “intracellular position of binding to SNX9” value with SNX9 [1] was “initially bound to SNC9 in the cytoplasm”. For the same substance, in the data set with SNX9 [2], the “interaction with endogenous and extrinsic SNX9 (co-immunoprecipitation)” value is on record as “strongly interacted”. The “intracellular position of binding to YEATS4” value with YEATS4 [3] is given as “migrated to the nucleus to bind to YEATS4”. The “interaction with endogenous and extrinsic YEATS4 (co-immunoprecipitation)” value in the data set on YEATS4 [4] is “strongly interacted”. Moreover, the “production of pro-inflammatory cytokines (TNF-α, IL-6, and IL-12p40) and anti-inflammatory cytokines (IL-10)” value in the data set with macrophages (BMDM) (BMDM, through TLR4/MyD88/TRAF6/TBK1-IRAK1 pathway) is listed as “promoted the production”. The “production of rRv3364c-induced inflammatory cytokines in SNX9−/− compared to SNX9+/+ macrophages” value in the data set on macrophages (BMDM) (SNX9−/− BMDM) was “significantly reduced”. The “enzymatic activity of cathepsin G” value with cathepsin G was “inhibit its enzymatic activity”. For the same substance, the “affinity with rRv3364c” value (in [5]; in data set [6]; in the data set with SNX9 (sorting nexin 9); in [7]) was “high affinity” each time.
